The results in this text go back to US10851401B2, “Broth microdilution method for evaluating and determining minimal inhibitory concentration of antibacterial polypeptides” (priority 2016, dated 2020).

This assay deals with S. aureus strains. The experiment in a line: Standard BMD susceptibility testing, broth versus human blood/serum/plasma. Type of assay: cell-based. The text has this:
The supplementation with DTT serves to stabilize lysin polypeptide and enable the use of frozen micro broth dilution panels for MIC determination. DTT is a common reducing agent used to prevent the oxidation and inactivation of enzymes during storage or in the context of in vitro assays.

B1: CF-301: bacteriophage lysin polypeptide derived from a Streptococcus suis prophage, amino acid sequence of FIG. 1 / SEQ ID NO: 1; 26 kDa bacteriolytic enzyme (protein, listed as Streptococcus suis)
chain: MTTVNEALNNVRAQVGSGVSVGNGECYALASWYERMISPDATVGLGAGVGWVSGAIGDTISAKNIGSSYNWQANGWTVSTSGPFKAGQIVTLGATPGNPYGHVVIVEAVDGDRLTILEQNYGGKRYPVRNYYSAASYRQQVVHYITPPGTVAQSAPNLAGSRSYRETGTMTVTVDALNVRRAPNTSGEIVAVYKRGESFDYDTVIIDVNGYVWVSYIGGSGKRNYVATGATKDGKRFGNAWGTFK
B1: the MIC90 was found to be 64 µg/mL (CA-MHB) and 1 µg/mL (human blood/serum/plasma). Where the note is “broth microdilution (BMD)”, the “S. aureus strains showing trailing (or Eagle) effect” value is listed as roughly 70%.

By MIC90 is commonly meant an inhibitory concentration at the 90% level, which refers to growth in some studies and to a panel of isolates in others. Read a low MIC90 as higher susceptibility.
